B1: 130994: Poppy cDNA clone; auxin tolerance hit sequence (nucleic acid)
DNA: GAATTCAATCAAATGGCTACTGCTAGAGTTTTAGCTGCTAGTATGTTGCATGAATGCAACAACACTCACAGTGCTTCATTTCTTTTGAGACAATCTTCTTTCATCTTACCTATTAAACATCAAAGTATTAATTTCAGTAGAAGAGCATCTTCTAGGAGAGCTTTTACTTGCAAATCTCTTTACAAACCTGAAATTCAAATCAAACAAGAAGGTGAACCTCAAACCCTAGATTACAGAGTCTTCTTTCATGATAAATCTGGCAAAAAGCTTTCACCTTGGCATGATGTACCATTGCAATTGGGTGATGGAGTGTTCAATTTTATCGTGGAAATACCAAAAGAGACAAGTGCAAAGATGGAAGTTGCAACTGATGAGCCATATACTCCCATTAAACAGGACACCAAGAAGGGAAAACTTAGATTCTACCCCTACAACATCAATTGGAACTATGGATTGCTCCCACAGACATGGGAAGACCCAACAGTAGCTAATTCTGAAGTTGAAGGGGCATTCGGAGATAATGATCCAGTTGATGTTGTTGAAATTGGGGAGAGGCAAGGAAAAATTGGCGAGATTCTTAAAGTCAAGCCTTTAGGTGCTTTGGCTATGATTGACGAAGGAGAACTCGACTGGAAAATTGTTGCGATTTCGTTGGATGACCCAAAAGCTTCACTCGTCAATGATGTTGGTGATGTTGAGAAACATTTCCCGGGCACTCTCACTGCTATAAGAGATTGGTTCAGAGACTACAAGATCCCAGATGGAAAGCCTGCCAATAAGTTTGGACTTGGGAACAAAGCAGCCAACAAGGATTATGCTCTGAAGGTAATAACTGAAACCAACGAAGCTTGGGCTAAACTTGTCAAGAGAACTGTTCCTGCTGGGGAGCTCTCCCTTCTGTAAATTTTGAATTTTTAAAAGTTGAAGATAAGAGGCACTTTGGCCCGCTCCTATCCCCCTCCTCTCTCTATTGTTTTCTTTCATGCTGGATTCCAAACAAACTTCCTCCAATTTTTTGGACGAAGTATTGATAATTTCTAATCATTGAGCTCCATTTTTCAAAAAAAAAAAA
modifications: Poppy
B2: 130294: Poppy cDNA clone; auxin tolerance hit sequence (nucleic acid)
DNA: TTAATTAAGTCGACGAATTCACATCTAAAGTCAACAACAAGAGCTTCTCTCTTCTCCTCGTCTCTGTTCTCCTCTCTTTTGCAATCCTCTCTCAATCTGCTGATGATTGTGTATACACAGTATACACAAGAACAGGATCAATCATCAAAGGAGGAACGGATTCAAAAATCTCACTAAGATTATACAGCAAATACGGTAAGTACATCGAGATCCCAAATCTTGAATCATGGGGTGGATTAATGGGTCCTGGTTACGATTATTTCGAAAGAGGTAATCTTGATATCTTCAGCGGAAGAGGTTATTGTCTGGGTTCACCGGTTTGTGCCATGAATCTGACTTCCGATGGTACTGGTTCCGGTCACGGATGGTATGTGAATTATGTTGAAGTTACTACTACCGGTGCACATATTAATTGTGGTCAACAGAATTTTGAAGTGGAAGATTGGCTTGCTCTTGATAGATCTCCTTATAGTCTTACCGCTATCAAGAATAATTGTAATCAGAAATTATCTGATCATGATTCTCATTCTGCTGATCAGTCTATGTAAAATTTGATCTCTTGTTTGATTCGGTGGTGGTCTAGTATGAGTGATCGGACGGTCGTCATTGTGTGTTGTAATGTTGAAATTATTTTCTTGAATAAAATGATTGAGTGAGTAGTGTTTGATTTTGCTTGGCCATCTTAGACATGATGGTGAGACTGTTTCTCGATTCGATGCAATTTTTTGGTTTTCTTGGTTGCAATCAATTCACGTTTGGTGAAAAAAAAAAAAAAAAAAAAAAAAAAAAAAAAAAAAAAAAAAAA
modifications: Poppy

Experiments:
[1] = test system: Nicotiana benthamiana; assay: Evaluation of auxin tolerance in greenhouse plants inoculated with clone transcript and sprayed with herbicide; format: in vivo; settings: greenhouse; 30% or more of test population tolerant by 14 dat
Method: All primary hit sequences were evaluated for tolerance in larger plants, maintained under greenhouse conditions as described below.
Plant Growth and Maintenance. Nb seeds were sown in 6.5 cm pots filled with Redi-earth medium (The Scotts Company, Marysville, Ohio) pre-wetted by injection of Hoagland's fertilizer solution [all from the Scotts Company: 147 kg Peters Excel 15-15-15 Cal-Mag, 68 kg Peters Excel 15-0-0 Cal-Lite (15% Ca), and 45 kg Peters Excel 10-0-0 MagNitrate (10% Mg) in hot tap water to 596 L total volume] into irrigation water at a ratio of 200:1, using an injection system (H. E. Anderson, Muskogee Okla,). Seededpots were placed in the greenhouse for 1 day, transferred to a 27° C. germination chamber (Carolina Greenhouses, Kinston, N.C.) for 2 days, and then returned to the greenhouse. Shade curtains (33% transmittance) were used in the greenhouse to reduce solar intensity. To ensure 16 hour day length and supplement solar radiation on overcast days, artificial lighting consisting of a 1:1 mixture of metal halide and high pressure Sylvania sodium lamps was used, delivering approximately 220 μmol/m^2/s. Evaporative cooling and steam heat were used to maintain a daytime set point of 27° C. and a nighttime temperature of 22° C. At approximately 7 days post sowing (dps), seedlings were thinned to one seedling per pot and at 17 to 21 dps, the pots were spaced farther apart to accommodate plant growth. Plants were watered with Hoagland's solution as required. Following inoculation, waste irrigation water was collected and treated with 0.5% sodium hypochlorite for 10 minutes to neutralize any viral contamination before discharging into the municipal sewer.
Plant Inoculation. For each clone, 50 test plants as well as 10 GFP and bar (Thompson et al., EMBO J. 6:2519 [19870]) negative control plants were inoculated as follows: 2.0 mL of inoculum per clone were prepared by combining equal volumes of NCAP transcript and FES buffer [0.1 M glycine, 0.06 M K2HPO4, 1% sodium pyrophosphate, 1% diatomaceous earth (Sigma Chemical Company, St. Louis, Mo.), and either 1% silicon carbide (Aldrich Chemical Company, Milwaukee, Wis.), or 1% Bentonite (Sigma Chemical Company, St. Louis, Mo.)]. The inoculum was applied to each plant at 17 days post sowing by pipetting onto the upper surface of leaves 3 and 4 (˜20 μL per leaf). The inoculum was then spread across each leaf surface using a 3″ cotton tipped applicator (Calapro Swab, Fisher Scientific, Pittsburgh, Pa.) and a gloved finger to support the leaf. Following inoculation the plants were misted with deionized water.
Infection Scoring. At 8 days post inoculation (dpi), the plants were visually examined and a numerical score was assigned to each plant to indicate the extent of viral infection symptoms: 0=no infection, 1=possible infection, 2=infection symptoms limited to leaves <50-75% fully expanded, 3=typical systemic infection, 4=atypically severe infection, often accompanied by moderate to severe wilting and/or necrosis. Plants receiving an infection rating of 0, 1, or 4 were discarded.
Herbicide spraying. At 9 dpi, the well infected plants (infection score of 3, sometimes 2) were divided into 3 treatment groups. Group 1, to be sprayed with solvent only, contained 4 plants per test clone (2 plants per negative control) and Groups 2 and 3, to be treated with 13 or 40 g ae/ha, respectively, each consisted of 12 test plants per clone and 2 plants per negative control. […]

[2] = test system: Nicotiana benthamiana; assay: Cross-resistance testing against six auxin compounds (greenhouse); format: in vivo; settings: for tolerance to picloram (Compound #5): 10 g ae/ha and 1/2x; for tolerance to positive control 4-amino-3,6-dichloropyridine-2-carboxylic acid (Compound #6): 10 g ae/ha and 1/2x (5 g ae/ha); for tolerance to dicamba (Compound #3): 64 g ae/ha and 1/2x; for tolerance to quinclorac (Compound #1): 200 g ae/ha and 1/2x; for extent of cross-resistance to the six auxin compounds: two trials, two doses per auxin, thresholds 25% or 35% injury or less
Description: Six compounds, representing five classes of auxin chemistry, were selected for testing the extent of auxinic tolerance of five hit sequences (129965 (SEQ ID NO:10), 130213 (SEQ ID NO: 14), 130294 (SEQ ID NO:360), 130994 (SEQ ID NO:361), and 129870 (SEQ ID NO:359)). The compounds included the following: • 1) quinclorac (BASF Corp., Research Triangle, N.C.) • 2) (2,4-dichlorophenoxy) acetic acid (Dow AgroSciences, Indianapolis, Ind.) • 3) dicamba (Monsanto, St. Louis, Mo.) • 4) benazolin (AgrEvo USA Company, Wilmington, Del.) • 5) picloram (Dow AgroSciences, Indianapolis, Ind.) • 6) 4-amino-3,6-dichloropyridine-2-carboxylic acid (Dow AgroSciences, Indianapolis, Ind.) Compound #6 served as a positive control, as these five sequences were identified for their herbicide tolerant function using this auxin (see Example 9). Compound #1 represents the quinoline carboxylic acid chemical family, #2 is in the phenoxy carboxylic acid class, #3 is benzoic acid chemistry, #4 is unique to any currently defined class, and #5 is in the same family as the positive control, pyridine carboxylic acids.
The protocol was essentially the same as that described in Example 9 for greenhouse evaluations. However, an individual experiment consisted of 200 test plants plus 35 GFP and 35 bar negative control plants inoculated per clone. […] Two doses per auxin were tested, with as many as 12 well-infected test plants and 2 of each of the negative controls per dose.
The six auxin solutions were prepared by dissolving solid compound in General Purpose Solvent (GPS: 97%DMSO: 3% acetone) to achieve the following spray rates (g ae/ha) when using the spray applicator and parameters outlined in Example 9: Compound #1) 200; 2) 42; 3) 64; 4) 200; 5) 10; 6) 10. From each of these solutions, a portion was diluted with an equal volume of GPS, resulting in 1× (“high dose”) and ½× (“low dose”) concentrations for spraying. Before spray application, each auxin solution was mixed with an equal volume of diluent containing surfactants for effective penetration. The diluent was prepared as follows: 420 mL GPS, 460 mL DI water, 120 mL isopropyl alcohol, 10.167 mL Agri-Dex (Helena Chemical Co., Memphis, Tenn.), and 0.167 mL Triton X-155 (Sigma Chemical Co., St. Louis, Mo.). In addition to the 200 and 100 g ae/ha rates tested for Compound #4 (benazolin), a concentration of 250 g ae/ha was also formulated as described above and tested.
Plants were sprayed and evaluated as described in Example 9. FIG. 7 summarizes the sequences tested and the highest dose of the compounds against which tolerance was observed. […] Results are reported in FIG. 7 for each of the trials with each construct.
The positive control (Compound #6) was formulated differently in this set of evaluations from that described in Example 9, for consistency in the solvent/surfactant background from which to compare the activity of the individual sequences against each auxin. Thus, the spray rate used for evaluation was lower than previous experiments, 5 vs. 13 g ae/ha. The need to lower the dose with this formulation to prevent total chlorosis and/or necrosis was likely due to the addition of DMSO, Agri-Dex, and Triton X-155 which were not used in Example 9.

Molecule | reproducibility of auxin tolerance from Trial #1 to Trial #2 [1] | tolerance to picloram (Compound #5) [2] | tolerance to positive control 4-amino-3,6-dichloropyridine-2-carboxylic acid (Compound #6) [2] | tolerance to dicamba (Compound #3) [2] | tolerance to quinclorac (Compound #1) [2] | extent of cross-resistance to the six auxin compounds [2]
B1 | reproducible auxin tolerance | demonstrated tolerance to each of the three compounds using the 35% injury threshold | tolerance consistently occurred at the lower threshold (25% injury or less) | demonstrated tolerance to each of the three compounds using the 35% injury threshold | demonstrated tolerance to each of the three compounds using the 35% injury threshold | tolerance was observed against four compounds
B2 | reproducible auxin tolerance | clear resistance to dicamba and picloram when the 35% rating was considered | tolerance consistently occurred at the lower threshold (25% injury or less) | clear resistance to dicamba and picloram when the 35% rating was considered | consistently tolerant to quinclorac exposure at the 25% injury threshold | tolerance was observed against four compounds
